The values below come from the supplement of paper PMC10567573.

± gives the standard deviation.

The nature of this series: protein stability index of a GFP-peptide fusion (GPS, HEK-293T) (PSI 1-6); higher = more stable.
Where [1] appears, read: treatment: DMSO, c terminus: a fixed tail appended.
Setting [2] is: treatment: MLN4924 1 uM, 8 h, c terminus: a fixed tail appended.
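Note: 24-mer peptide tiles fused after GFP, lentivirally expressed, FACS-sorted into six equal bins by GFP/DsRed ratio, decoded by Illumina sequencing, PSI is the read-weighted mean bin number.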

For the sequence DTQYGSSVDIWAIGCVFAELLTGQ [CDKL4], the protein stability index by setting is: under setting [1], 2.8 ± 0.59; under setting [2], 2.37 ± 0.46.
Taken in the same sequence, the figures for DTRLRYSFFVPRPTPSTPRPTPQD [ADAMTS4] were 3.64 ± 0.15 and 3.74 ± 0.089.
Taken in the same sequence, the figures for DVDEDEPGGLVGSADVVSPSGHSD [PPFIA4] were 5.66 ± 0.36 and 5.47 ± 0.12.
The like results for DVEAWFNTQTEELNQQVVSSSEQL [KRT36] were, in that order, 4.65 ± 0.22 and 4.73 ± 0.15.
On to DVIGDEICCWSFYGQGRKIAEVCC [KCTD10], for which the protein stability index by setting is: under setting [1], 2.42 ± 0.92; under setting [2], 2.33 ± 0.54.
The like results for DVNEQVMQVLGPEDLQSIIYKLEE [CEP70] were, in that order, 3.7 ± 0.21 and 3.7 ± 0.24.
Taken in the same sequence, the figures for DWYQRQRPSEIKDYSPYFKTIEDL [KRT16] were 2.74 ± 0.28 and 2.9 ± 0.32.
The like results for DYPYSPPAFRFLTKMWHPNIYETG [CDC34] were, in that order, 2.17 ± 0.62 and 1.94 ± 0.28.
As to DYQPTQAGRLMRPSVKYLSHPRVQ [RNF180], the protein stability index was found to be 3.34 ± 0.22 under setting [1] and 3.4 ± 0.12 under setting [2].
Take EAALNSKDAALATALGDKKSLEGD [LMNB1]: the protein stability index reads like this: under setting [1], 5.52 ± 0.25; under setting [2], 5.5 ± 0.078.
Taken in the same sequence, the figures for EAEEEELRAELTKVEEEIVTLRQV [TPD52L2] were 4.25 ± 0.26 and 4.63 ± 0.51.
For EAEVTILFYFFLYQYCSIHCSDRK [CSTF3], the protein stability index under setting [1] stood at 2.57 ± 0.56 and the protein stability index under setting [2] amounted to 2.53 ± 0.15.
Turning to EAGGRFVAFSGEGQSLRKKGRKP [UFD1], the protein stability index is, setting by setting: (treatment: DMSO, c terminus: native) 2.75 ± 0.78; (treatment: MLN4924 1 uM, 8 h, c terminus: native) 3.29 ± 0.79.
As to EAQRASFLQNAVLAYVQASPVRTL [LRRC45], the protein stability index runs as follows: under setting [1], 2.41 ± 0.29; under setting [2], 2.3 ± 0.26.
Taken in the same sequence, the figures for EDLEDLGAVAPPVSGDLTKEDIDL [NFE2L1] were 5.71 ± 0.4 and 5.3 ± 0.76.
The like results for EDPVPGMLFFLPPGQHLSDYSQLN [FBXO34] were, in that order, 3.03 ± 0.35 and 3.11 ± 0.38.
As to EDSLAALSSVPSEAQISDPFAPEP [SNAP91], the protein stability index reads like this: under setting [1], 5.33 ± 0.34; under setting [2], 5.34 ± 0.18.
The like results for EEEKEPLAVDSWWLDPGHTAVAQA [SERTAD1] were, in that order, 4.8 ± 0.27 and 4.88 ± 0.23.
The like results for EEEKKKMEESKAKFENLCKLMKEI [HSP90AB1] were, in that order, 4.43 ± 0.36 and 4.58 ± 0.49.
Turning to EEEQDILQRLRENAAHLGDKRRDL [TRIM39], the protein stability index reads like this: under setting [1], 5.06 ± 0.26; under setting [2], 4.97 ± 0.059.
As for EERAAPVLSCEAATQTERRLDLAA [FAM189A2], the protein stability index is, setting by setting: under setting [1], 5.05 ± 0.28; under setting [2], 4.99 ± 0.12.
Taken in the same sequence, the figures for EERRVVHASGDASYSAGDSGDAAA [EPB41L3] were 5.49 ± 0.32 and 5.42 ± 0.17.
EESEEERGLEPGKGRHHRGRGGEP [CHGB]: the protein stability index is 5.59 ± 0.17 under setting [1] and 5.51 ± 0.25 under setting [2].
Consider EESKEPKEEKQRRRCKPKKPTRRD [GNAS], for which the protein stability index came to 5.42 ± 0.11 under setting [1] and 5.44 ± 0.16 under setting [2].
Regarding EFHQRRSEIIQITTGSKELDKLLQ [RAD51], the protein stability index under setting [1] was found to be 2.93 ± 0.2 and the protein stability index under setting [2] turned out to be 3.03 ± 0.51.
The like results for EGEEDATSEVDKRRTRPRHHHGRS [CHGB] were, in that order, 5.35 ± 0.47 and 5.33 ± 0.28.
With EGGTAVTGGQTVVNPWIIIGGVAT [SEPHS2], the protein stability index reads like this: under setting [1], 2.68 ± 0.29; under setting [2], 2.77 ± 0.43.
Regarding EGKMYTARKGKGAFCNGQKLQVSQ [IMPA1], the protein stability index under setting [1] came out at 3.52 ± 0.33 and the protein stability index under setting [2] turned out to be 3.93 ± 0.32.
The like results for EGKNMSFVNDLTVTQDGRKIYFTD [APMAP] were, in that order, 3.98 ± 0.38 and 3.91 ± 0.58.
The like results for EGLELTEQTFSPAKSLSFRKGELV [ADD1] were, in that order, 4 ± 0.39 and 4.2 ± 0.34.
Take EGLGQSLGNFKDDLLNVCMRHVEK [TRIM29]: the protein stability index runs as follows: under setting [1], 3.62 ± 0.27; under setting [2], 3.78 ± 0.27.
The like results for EGLLRFSSWPFSIQDVVQPLTLQV [AUP1] were, in that order, 2.85 ± 0.76 and 2.98 ± 1.
The like results for EGYCQAQAPIAAVLLMHMPAEQAF [TBC1D10A] were, in that order, 2.33 ± 0.49 and 2.03 ± 0.27.
Taken in the same sequence, the figures for EIALAPYQHLEEDMKSLKQVLEMK [MTUS2] were 3.62 ± 0.17 and 3.65 ± 0.49.
Under setting [2], EIKDVLVWTNDQVVHWVQSIGLRD [PPFIA4] displayed a protein stability index of 2.25 ± 0.37.
In turn, EKMMQEAEKLKAQGEYSRKLEERF [CCDC89] registered a protein stability index under setting [1] of 3.48 ± 0.24 and a protein stability index under setting [2] of 3.56 ± 0.52.
Turning to EKNQVQLGKLEATIKSLSAELLKA [SASS6], the protein stability index reads like this: under setting [1], 2.6 ± 0.45; under setting [2], 2.54 ± 0.42.
EKSGSAEPFVLPASSVESTLPVLE [FBXO34]: the protein stability index came out at 5.08 ± 0.39 under setting [1] and 5.01 ± 0.34 under setting [2].
ELALALKGNTTLQQLDLRWNNVGL [LRRC45] had a protein stability index under setting [1] of 2.19 ± 0.42 and a protein stability index under setting [2] of 2.07 ± 0.35.
Taken in the same sequence, the figures for ELEKNFSNFPRQYFALRKILKQLI [TRIM39] were 2.58 ± 0.92 and 2.85 ± 1.3.
ELEQQIWKERDEYITKVSEEVTRL [TRIM15] came in with a protein stability index under setting [1] of 3.94 ± 0.21 and a protein stability index under setting [2] of 3.95 ± 0.27.
Taken in the same sequence, the figures for ELERFVNLHSLALDFCDFTAEMAR [FBXO33] were 2.23 ± 0.11 and 2.61 ± 0.29.
Taken in the same sequence, the figures for ELESIRQDRDALHMEGLIVRERIL [FEM1B] were 3.44 ± 0.27 and 3.52 ± 0.36.
The like results for ELRRLFLVQDLVDSLKFAVLMWLL [RTN1] were, in that order, 2.18 ± 0.56 and 2.2 ± 0.29.
In turn, ELSPLALGRFSLTPAEGDTEEDDG [CDC25B] yielded a protein stability index under setting [1] of 5.44 ± 0.18 and a protein stability index under setting [2] of 5.44 ± 0.43.
The like results for ELVENIKSVLKSDEEHMEEAITSA [FAM189A2] were, in that order, 3.64 ± 0.16 and 3.79 ± 0.41.
Consider ELVLVSAGFDAARGDPLGGCQVSP [HDAC6], for which the protein stability index is 2.89 ± 0.27 under setting [1] and 3.14 ± 0.35 under setting [2].
On to EMHFLENAKKLSMYGVDLHHAKDS [EPB41L3], for which the protein stability index under setting [1] is 3.03 ± 0.67 and the protein stability index under setting [2] amounted to 2.8 ± 0.25.
Turning to EMHTALMEACMDGHVEVARLLLDS [ANKRD17], the protein stability index was determined as 2.38 ± 0.22 under setting [1] and 2.55 ± 0.28 under setting [2].
Taken in the same sequence, the figures for EMMRFIYTGRAPNLDKMADNLLAA [SPOPL] were 2.42 ± 0.29 and 2.01 ± 0.19.
Taken in the same sequence, the figures for ENTAETITRVLYEVFIEWGISAKV [ZBED1] were 2.82 ± 0.088 and 2.78 ± 0.72.
Turning to EQGFQEGVPNASVIMQVPERIVVA [MFF], the protein stability index under setting [1] is 3.76 ± 0.35 and the protein stability index under setting [2] amounted to 3.83 ± 0.042.
Taken in the same sequence, the figures for ERFIQYLASRNTLFNLSNFLDKSG [SNAP91] were 2.4 ± 0.26 and 2.53 ± 0.61.
